± gives the standard deviation of the averaged measurements.
Experiment: total protein half-life in vivo (active degradation + dilution); higher = more stable protein
[1] = E. coli NCM3722 delta-clpP delta-lon delta-hslV, growth: N-lim chemostat, doubling time 6 h
[2] = E. coli NCM3722 delta-clpP, growth: N-lim chemostat, doubling time 6 h
[3] = E. coli NCM3722 delta-hslV, growth: N-lim chemostat, doubling time 6 h
[4] = E. coli NCM3722 delta-lon, growth: N-lim chemostat, doubling time 6 h
[5] = E. coli NCM3722 delta-smpB, growth: N-lim chemostat, doubling time 6 h
[6] = wild type E. coli NCM3722, growth: C-lim chemostat, doubling time 3 h
[7] = wild type E. coli NCM3722, growth: C-lim chemostat, doubling time 6 h
[8] = wild type E. coli NCM3722, growth: C-lim chemostat, doubling time 12 h
[9] = wild type E. coli NCM3722, growth: N-lim chemostat, doubling time 6 h
[10] = wild type E. coli NCM3722, growth: N-lim chemostat, doubling time 12 h
[11] = wild type E. coli NCM3722, growth: P-lim chemostat, doubling time 6 h
[12] = wild type E. coli NCM3722, growth: P-lim chemostat, doubling time 12 h

Sequence | total protein half-life in vivo [1] | total protein half-life in vivo [2] | total protein half-life in vivo [3] | total protein half-life in vivo [4] | total protein half-life in vivo [5] | total protein half-life in vivo [6] | total protein half-life in vivo [7] | total protein half-life in vivo [8] | total protein half-life in vivo [9] | total protein half-life in vivo [10] | total protein half-life in vivo [11] | total protein half-life in vivo [12]
MCSIFGVFDIKTDAVELRKKALELSRLMRHRGPDWSGIYASDNAILAHERLSIVDVNAGAQPLYNQQKTHVLAVNGEIYNHQALRAEYGDRYQFQTGSDCEVILALYQEKGPEFLDDLQGMFAFALYDSEKDAYLIGRDHLGIIPLYMGYDEHGQLYVASEMKALVPVCRTIKEFPAGSYLWSQDGEIRSYYHRDWFDYDAVKDNVTDKNELRQALEDSVKSHLMSDVPYGVLLSGGLDSSIISAITKKYAARRVEDQERSEAWWPQLHSFAVGLPGSPDLKAAQEVANHLGTVHHEIHFTVQEGLDAIRDVIYHIETYDVTTIRASTPMYLMSRKIKAMGIKMVLSGEGSDEVFGGYLYFHKAPNAKELHEETVRKLLALHMYDCARANKAMSAWGVEARVPFLDKKFLDVAMRINPQDKMCGNGKMEKHILRECFEAYLPASVAWRQKEQFSDGVGYSWIDTLKEVAAQQVSDQQLETARFRFPYNTPTSKEAYLYREIFEELFPLPSAAECVPGGPSVACSSAKAIEWDEAFKKMDDPSGRAVGVHQSAYK | 3.62 ± 0.55 h | 2.71 ± 0.25 h | 2.84 ± 0.048 h | 3.181 ± 0.025 h | 2.55 ± 0.069 h | 2.87 ± 0.069 h | 4.97 ± 0.21 h | 7.86 ± 0.95 h | 2.69 ± 0.025 h | 3.857 ± 0.0049 h | 5.61 ± 0.3 h | 10.4 ± 0.4 h
MADVHDKATRSKNMRAIATRDTAIEKRLASLLTGQGLAFRVQDASLPGRPDFVVDEYRCVIFTHGCFWHHHHCYLFKVPATRTEFWLEKIGKNVERDRRDISRLQELGWRVLIVWECALRGREKLTDEALTERLEEWICGEGASAQIDTQGIHLLA | 5.56 h | 4.58 ± 0.72 h | 3.63 ± 0.22 h | 3.67 h | 4.35 ± 1.4 h |  | 4.16 h | 8.92 h | 3.98 ± 0.43 h | 5.45 ± 0.16 h | 3.9 ± 0.41 h | 9.27 ± 3.3 h
MKHGIKALLITLSLACAGMSHSALAAASVAKPTAVETKAEAPAAQSKAAVPAKASDEEGTRVSINNASAEELARAMNGVGLKKAQAIVSYREEYGPFKTVEDLKQVPGMGNSLVERNLAVLTL [P0AAR8] |  |  |  |  |  |  |  | 3.36 h |  |  |  | 
MRFYRPLGRISALTFDLDDTLYDNRPVILRTEREALTFVQNYHPALRSFQNEDLQRLRQAVREAEPEIYHDVTRWRFRSIEQAMLDAGLSAEEASAGAHAAMINFAKWRSRIDVPQQTHDTLKQLAKKWPLVAITNGNAQPELFGLGDYFEFVLRAGPHGRSKPFSDMYFLAAEKLNVPIGEILHVGDDLTTDVGGAIRSGMQACWIRPENGDLMQTWDSRLLPHLEISRLASLTSLI [P0ADP0] | 5.24 ± 0.7 h | 4.56 ± 0.69 h | 3.79 ± 0.05 h | 4.87 ± 0.35 h | 3.76 ± 0.16 h |  | 5.75 ± 0.33 h | 10.1 ± 1.4 h | 3.83 ± 0.34 h | 6.7 h | 5.87 ± 0.57 h | 11.6 ± 0.078 h
MKKIECACNFLMDKDAQGYIDLSDLDLTSCHFKGDVISKVSFLSSNLQHVTFECKEIGDCNFTTAIVDNVIFRCRRLHNVIFIKASGECVDFSKNILDTVDFSQSQLGHSNFRECQIRNSNFDNCYLYASHFTRAEFLSAKEISFIKSNLTAVMFDYVRMSTGNFKDCITEQLELTIDYSDIFWNEDLDGYINNIIKMIDTLPDNAMILKSVLAVKLVMQLKILNIVNKNFIENMKKIFSHCPYIKDPIIRSYIHSDEDNKFDDFMRQHRFSEVNFDTQQMIDFINRFNTNKWLIDKNNNFFIQLIDQALRSTDDMIKANVWHLYKEWIRSDDVSPIFIETEDNLRTFNTNELTRNDNIFILFSSVDDGPVMVVSSQRLHDMLNPTKDTNWNSTYIYKSRHEMLPVNLTQETLFSSKSHGKYALFPIFTASWRAHRIMNKGV |  |  |  |  |  |  |  | 11.2 h |  |  |  | 
MFKFLVLTLGIISCQAYAEDTVIVNDHDISAIKDCWQKNSDDDTDVNVIKSCLRQEYNLVDAQLNKAYGEAYRYIEQVPRTGVKKPDTEQLNLLKKSQRAWLDFRDKECELILSNEDVQDLSDPYSESEWLSCMIIQTNTRTRQLQLYRNSEDFYPSPLTRG |  |  | 6.44 h |  |  |  |  |  |  |  |  | 
MGFLSGKRILVTGVASKLSIAYGIAQAMHREGAELAFTYQNDKLKGRVEEFAAQLGSDIVLQCDVAEDASIDTMFAELGKVWPKFDGFVHSIGFAPGDQLDGDYVNAVTREGFKIAHDISSYSFVAMAKACRSMLNPGSALLTLSYLGAERAIPNYNVMGLAKASLEANVRYMANAMGPEGVRVNAISAGPIRTLAASGIKDFRKMLAHCEAVTPIRRTVTIEDVGNSAAFLCSDLSAGISGEVVHVDGGFSIAAMNELELK [P0AEK4] | 5.4 ± 0.09 h | 5.37 ± 0.42 h | 5.299 ± 0.046 h | 5.88 ± 0.25 h | 4.97 ± 0.28 h | 3.26 ± 0.14 h | 5.9 ± 1.1 h | 11 ± 1.2 h | 5.28 ± 0.18 h | 10.2 ± 2 h | 6.19 ± 0.08 h | 13.74 ± 0.13 h
MKTGMFTCGHQRLPIEHAFRDASELGYDGIEIWGGRPHAFAPDLKAGGIKQIKALAQTYQMPIIGYTPETNGYPYNMMLGDEHMRRESLDMIKLAMDMAKEMNAGYTLISAAHAGYLTPPNVIWGRLAENLSELCEYAENIGMDLILEPLTPYESNVVCNANDVLHALALVPSPRLFSMVDICAPYVQAEPVMSYFDKLGDKLRHLHIVDSDGASDTHYIPGEGKMPLRELMRDIIERGYEGYCTVELVTMYMNEPRLYARQALERFRALLPEDER | 7.09 h |  |  |  |  | > 4 h |  | 6.86 h |  |  |  | 
MRIFVYGSLRHKQGNSHWMTNAQLLGDFSIDNYQLYSLGHYPGAVPGNGTVHGEVYRIDNATLAELDALRTRGGEYARQLIQTPYGSAWMYVYQRPVDGLKLIESGDWLDRDK [P0AE48] | 5.12 ± 0.42 h | 4.63 ± 0.19 h | 4.95 ± 0.15 h | 5.345 ± 0.014 h | 5 ± 0.3 h | 2.57 ± 0.21 h | 5.316 ± 0.012 h | 8.87 ± 0.3 h | 4.49 ± 0.61 h | 7.76 ± 0.7 h | 5.27 ± 0.36 h | 11.5 ± 1.6 h
MSAVLTAEQALKLVGEMFVYHMPFNRALGMELERYEKEFAQLAFKNQPMMVGNWAQSILHGGVIASALDVAAGLVCVGSTLTRHETISEDELRQRLSRMGTIDLRVDYLRPGRGERFTATSSLLRAGNKVAVARVELHNEEQLYIASATATYMVG [P0ADP2] | 5.02 ± 0.33 h | 2.3 ± 0.16 h | 2.36 ± 0.08 h | 3.45 ± 0.78 h | 2.22 ± 0.052 h | 2.82 ± 0.14 h | 5.73 ± 0.62 h | 7.1 ± 2.8 h | 2.54 ± 0.22 h | 4.13 ± 0.42 h | 5 ± 0.1 h | 12.5 ± 1 h

— the supplement of paper PMC11246515
